The target in assay [1] is T1, hASIC1a on CHO-K1 cells stably expressing hASIC1a (human, UniProt P78348 1-528).
T1 sequence (looked up): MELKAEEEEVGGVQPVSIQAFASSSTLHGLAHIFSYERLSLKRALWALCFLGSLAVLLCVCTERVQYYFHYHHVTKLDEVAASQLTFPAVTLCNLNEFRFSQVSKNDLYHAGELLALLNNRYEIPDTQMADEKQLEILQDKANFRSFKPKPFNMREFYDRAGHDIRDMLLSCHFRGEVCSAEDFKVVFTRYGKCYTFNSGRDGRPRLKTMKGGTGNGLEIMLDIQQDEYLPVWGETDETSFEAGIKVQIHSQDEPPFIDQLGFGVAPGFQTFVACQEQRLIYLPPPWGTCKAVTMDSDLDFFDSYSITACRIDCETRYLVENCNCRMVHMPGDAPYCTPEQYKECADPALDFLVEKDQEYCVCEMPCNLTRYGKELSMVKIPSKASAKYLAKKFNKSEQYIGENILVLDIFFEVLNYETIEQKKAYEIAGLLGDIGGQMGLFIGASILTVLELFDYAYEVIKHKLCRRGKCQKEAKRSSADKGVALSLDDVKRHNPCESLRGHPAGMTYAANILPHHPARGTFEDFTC
The assay is described as follows: cell-based or functional assay.

For assay [2], the target named is T2, human ASIC2a-eYFP (hASIC2a-eYFP) on transiently transfected CHO-K1 cells (human, UniProt Q16515 1-512).
T2 construct: whole, on cells; not shown: eYFP fusion partner
T2 sequence (looked up): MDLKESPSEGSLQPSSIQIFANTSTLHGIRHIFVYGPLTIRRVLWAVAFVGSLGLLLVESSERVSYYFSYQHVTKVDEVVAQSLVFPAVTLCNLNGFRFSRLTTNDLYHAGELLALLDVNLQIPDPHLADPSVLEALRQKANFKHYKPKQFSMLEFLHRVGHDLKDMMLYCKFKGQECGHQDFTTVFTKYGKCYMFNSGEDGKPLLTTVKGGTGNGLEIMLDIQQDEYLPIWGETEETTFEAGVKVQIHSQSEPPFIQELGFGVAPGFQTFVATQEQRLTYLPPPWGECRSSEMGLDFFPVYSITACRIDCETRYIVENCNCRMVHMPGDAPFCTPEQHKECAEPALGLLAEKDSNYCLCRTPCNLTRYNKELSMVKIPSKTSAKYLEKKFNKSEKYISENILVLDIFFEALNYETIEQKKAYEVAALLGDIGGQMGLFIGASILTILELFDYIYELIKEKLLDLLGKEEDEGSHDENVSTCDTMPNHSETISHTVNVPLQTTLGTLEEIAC
Nature of the assay: FACS on transiently transfected CHO-K1 cells. The method, then:
(§1) To investigate the species selectivity of ASC06-IgG1 affinity-matured antibodies, plasmids encoding fusion proteins of eYFP with […] homologs of ASIC1a were constructed. These plasmids included those encoding human ASIC1a (hASIC1a-eYFP), mouse ASIC1a (mASIC1a-eYFP), and rat ASIC1a (rASIC1a-eYFP). CHO-K1 cells were transiently transfected with the ASIC1a-eYFP plasmids, and a fluorescence activated cell sorting (FACS)-based binding assay was carried out to determine binding to the homologs or isoforms of ASIC1a expressed on the cell surface. An isotype control was used as a negative control for binding (NC). ASC06-IgG1 was used as a positive control. Summarily, the CHO-K1 cells expressing the ASIC1a-eYFP (green) homologs were stained with the indicated antibody (red) and subjected to FACS.
(§2) To examine the ASIC isotype selectivity of ASC06-IgG1 affinity-matured antibodies, plasmids encoding fusion proteins of eYFP with isoforms of […] were constructed. These plasmids included those encoding human ASIC1b (hASIC1b-eYFP), human ASIC2a (hASIC2a-eYFP), and human ASIC3a (hASIC3a-eYFP). CHO-K1 cells were transiently transfected with these plasmids and used in a FACS-based binding assay disclosed herein. Binding of ASC06-IgG1 to CHO-K1 cells expressing human ASIC1a-eYFP (hASIC1a-eYFP) was used as a positive control (data not shown and FIG. 2), and an isotype control was used as a negative control for binding (NC).

Assay [3] addresses T3, mouse ASIC1a-eYFP (mASIC1a-eYFP) on transiently transfected CHO-K1 cells (mouse, UniProt Q6NXK8 1-526).
T3 construct: whole, on cells; not shown: eYFP fusion partner
T3 sequence (looked up): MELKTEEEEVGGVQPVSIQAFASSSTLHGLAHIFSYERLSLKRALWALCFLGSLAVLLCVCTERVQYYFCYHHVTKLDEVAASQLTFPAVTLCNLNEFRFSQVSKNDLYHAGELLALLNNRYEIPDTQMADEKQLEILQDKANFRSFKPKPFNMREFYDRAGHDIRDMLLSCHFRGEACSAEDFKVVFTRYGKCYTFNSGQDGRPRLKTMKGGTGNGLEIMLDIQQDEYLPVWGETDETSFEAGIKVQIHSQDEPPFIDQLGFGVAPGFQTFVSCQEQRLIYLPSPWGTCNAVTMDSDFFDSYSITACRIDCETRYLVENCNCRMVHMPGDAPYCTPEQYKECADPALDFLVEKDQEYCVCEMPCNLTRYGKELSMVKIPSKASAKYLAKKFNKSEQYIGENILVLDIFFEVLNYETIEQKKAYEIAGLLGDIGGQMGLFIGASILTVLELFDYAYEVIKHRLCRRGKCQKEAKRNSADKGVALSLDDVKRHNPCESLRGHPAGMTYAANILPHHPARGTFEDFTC
Nature of the assay: FACS on transiently transfected CHO-K1 cells. As for the experimental part:
as §1, §2

Assay [4] has as its target T4, human ASIC3a-eYFP (hASIC3a-eYFP) on transiently transfected CHO-K1 cells (human, UniProt Q9UHC3 1-531).
T4 construct: whole, on cells; not shown: eYFP fusion partner
T4 sequence (looked up): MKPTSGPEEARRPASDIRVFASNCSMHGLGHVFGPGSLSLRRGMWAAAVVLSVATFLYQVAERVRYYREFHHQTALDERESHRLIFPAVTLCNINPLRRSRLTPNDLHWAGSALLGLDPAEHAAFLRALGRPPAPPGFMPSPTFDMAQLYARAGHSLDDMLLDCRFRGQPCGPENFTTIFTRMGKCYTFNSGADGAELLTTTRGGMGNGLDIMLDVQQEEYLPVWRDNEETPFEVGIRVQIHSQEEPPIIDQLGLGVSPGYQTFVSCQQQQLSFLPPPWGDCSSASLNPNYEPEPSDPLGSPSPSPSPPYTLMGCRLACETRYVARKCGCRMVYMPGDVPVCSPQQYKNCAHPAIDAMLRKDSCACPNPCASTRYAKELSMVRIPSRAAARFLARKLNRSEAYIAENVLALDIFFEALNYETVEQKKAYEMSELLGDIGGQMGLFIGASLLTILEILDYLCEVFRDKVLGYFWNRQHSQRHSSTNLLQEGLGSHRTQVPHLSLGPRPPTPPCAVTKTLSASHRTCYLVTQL
The assay is described as follows: FACS on transiently transfected CHO-K1 cells. The method, then: as §1, §2

We go through five molecules from patent publication US20230174642A1, “AFFINITY-MATURATED ANTI-ASIC1a ANTIBODIES” (SHANGHAITECH UNIVERSITY, priority 2019, published 2023).

B1: ASC06-03-IgG1 (antibody, V domains shown)
VH: QVQLQQSGGGLVQPGGSLRLSCAASGFTFSSYAMSWVRQAPGKGLEWVSAISGSGGSTYYADSVKGRFTISRDNSKNTLYLQMNSLRAEDTAVYYCAKDSFYGRAKGSWGQGTLVTVSS
VL: QSALTQPASVSGSPGQSITISCTGTSSDVGAYNYVSWYQQQPGKAPKLMIYGVSNRPSGVSNRFSGSKSGNAASLTISGLQAEDEADYYCSSYTSSSTYVFGTGTKLTVLG
notes: Full length IgG1
For the molecule B1, the “Percent inhibition of the acid induced-hASIC1a currents, 30 nM antibody (Patch Clamp)” value in assay [1] was found to be 79.4%. Also, the “Percent inhibition of the acid induced-hASIC1a currents, 100 nM antibody (Patch Clamp)” value in assay [1] was found to be 89.7%. The binding result in assay [2] was “no binding”; in assay [3], “binds”; in assay [4] it was “no binding”.

B2: ASC06-01-IgG1 (antibody, V domains shown)
VH: QVQLQQSGGGLVQPGGSLRLSCAASGFTFSSYAMSWVRQAPGKGLEWVSAISGSGGSTYYADSVKGRFTISRDNSKNTLYLQMNSLRAEDTAVYYCAKDSYFGYSKGDWGQGTLVTVSS
VL: QSALTQPASVSGSPGQSITISCTGTSSDVGAYNYVSWYQQQPGKAPKLMIYGVSNRPSGVSNRFSGSKSGNAASLTISGLQAEDEADYYCSSYTSSSTYVFGTGTKLTVLG
notes: Full length IgG1
For the molecule B2, the “Percent inhibition of the acid induced-hASIC1a currents, 30 nM antibody (Patch Clamp)” value in assay [1] amounted to 20%. The “Percent inhibition of the acid induced-hASIC1a currents, 100 nM antibody (Patch Clamp)” value in assay [1] was found to be 49%. The values for the binding result in assay [2], in assay [3] and in assay [4] were “no binding”, “binds” and “no binding”, respectively.

B3: ASC06-IgG1 (antibody, V domains shown)
VH: QVQLQQSGGGLVQPGGSLRLSCAASGFTFSSYAMSWVRQAPGKGLEWVSAISGSGGSTYYADSVKGRFTISRDNSKNTLYLQMNSLRAEDTAVYYCAKDSFYGYSKGDWGQGTLVTVSS
VL: QSALTQPASVSGSPGQSITISCTGTSSDVGAYNYVSWYQQQPGKAPKLMIYGVSNRPSGVSNRFSGSKSGNAASLTISGLQAEDEADYYCSSYTSSSTYVFGTGTKLTVLG
notes: Tested as full length IgG1; also called WT antibody ASC06-IgG1; parental ASC06-IgG1 antibody
For B3, in assay [1], the “Percent inhibition of the acid induced-hASIC1a currents, 30 nM antibody (Patch Clamp)” value is 35.5%. Also, the “Percent inhibition of the acid induced-hASIC1a currents, 100 nM antibody (Patch Clamp)” value in assay [1] was 55.5%. Further, the values for the binding result in assay [2], in assay [3] and in assay [4] were “no binding”, “binds” and “no binding”, respectively.

B4: ASC06-02-IgG1 (antibody, V domains shown)
VH: QVQLQQSGGGLVQPGGSLRLSCAASGFTFSSYAMSWVRQAPGKGLEWVSAISGSGGSTYYADSVKGRFTISRDNSKNTLYLQMNSLRAEDTAVYYCAKDSFFGRAKGSWGQGTLVTVSS
VL: QSALTQPASVSGSPGQSITISCTGTSSDVGAYNYVSWYQQQPGKAPKLMIYGVSNRPSGVSNRFSGSKSGNAASLTISGLQAEDEADYYCSSYTSSSTYVFGTGTKLTVLG
notes: Full length IgG1
For B4, in assay [1], the “Percent inhibition of the acid induced-hASIC1a currents, 30 nM antibody (Patch Clamp)” value stood at 94.6%. Further, the “Percent inhibition of the acid induced-hASIC1a currents, 100 nM antibody (Patch Clamp)” value in assay [1] was 97.2%. The binding result is listed as “no binding” in assay [2], “binds” in assay [3] and “no binding” in assay [4].

B5: ASC06-04-IgG1 (antibody, V domains shown)
VH: QVQLQQSGGGLVQPGGSLRLSCAASGFTFSSYAMSWVRQAPGKGLEWVSAISGSGGSTYYADSVKGRFTISRDNSKNTLYLQMNSLRAEDTAVYYCAKDSFYGRAKGVWGQGTLVTVSS
VL: QSALTQPASVSGSPGQSITISCTGTSSDVGAYNYVSWYQQQPGKAPKLMIYGVSNRPSGVSNRFSGSKSGNAASLTISGLQAEDEADYYCSSYTSSSTYVFGTGTKLTVLG
notes: Full length IgG1
On to B5, for which the “Percent inhibition of the acid induced-hASIC1a currents, 100 nM antibody (Patch Clamp)” value in assay [1] was 96.7%. Moreover, the binding result in assay [2] is given as “no binding”; in assay [3] it was “binds”; in assay [4], “no binding”.
